Target: T1, MNV P domain (protruding domain of the capsid protein VP1 of murine norovirus) (murine norovirus (MNV), strain CW3, UniProt Q80J94 225-541)
T1 chain: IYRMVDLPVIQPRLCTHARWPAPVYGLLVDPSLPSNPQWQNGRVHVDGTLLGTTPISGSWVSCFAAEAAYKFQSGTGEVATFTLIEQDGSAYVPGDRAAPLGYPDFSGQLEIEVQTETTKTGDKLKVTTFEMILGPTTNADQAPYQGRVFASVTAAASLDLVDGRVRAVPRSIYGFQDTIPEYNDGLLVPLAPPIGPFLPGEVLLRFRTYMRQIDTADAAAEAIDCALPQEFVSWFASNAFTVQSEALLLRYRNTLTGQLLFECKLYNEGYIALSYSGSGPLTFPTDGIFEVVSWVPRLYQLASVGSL
Test: ITC

B1: Nanobody NB-5829 (VHH)
VHH: QVQLQESGGGLVEAGGSLRLSCLGSGLTFSRYAMGWFRQAPGKEREFVASITRSGGSPNYADSVKGRFTISRDNAKNTVYLQMSSLKPEDTAVYYCAGRGSVYYDVWGQGTQVTVSS
- Kd: 1.4 nM
